The results in this text go back to patent US8524668.

The target of this test is TLR2/TLR6 heterodimer. In words: cell-based or functional assay.

In turn, CBLB617 (peptide) registered an NF-κB activation of 100.
Substance CBLB613 (peptide) came in with an NF-κB activation of 200.
